According to US20250262316A1 (BIO THERA SOLUTIONS, published 2025):

Columns and labels:
[1] = molecular target: T1, B7-H3 (NCBI Reference Sequence: NP_001019907.1) on CHO-K1-B7-H3 cells (human, UniProt Q5ZPR3 29-534); test: cell-based or functional assay
T1 sequence: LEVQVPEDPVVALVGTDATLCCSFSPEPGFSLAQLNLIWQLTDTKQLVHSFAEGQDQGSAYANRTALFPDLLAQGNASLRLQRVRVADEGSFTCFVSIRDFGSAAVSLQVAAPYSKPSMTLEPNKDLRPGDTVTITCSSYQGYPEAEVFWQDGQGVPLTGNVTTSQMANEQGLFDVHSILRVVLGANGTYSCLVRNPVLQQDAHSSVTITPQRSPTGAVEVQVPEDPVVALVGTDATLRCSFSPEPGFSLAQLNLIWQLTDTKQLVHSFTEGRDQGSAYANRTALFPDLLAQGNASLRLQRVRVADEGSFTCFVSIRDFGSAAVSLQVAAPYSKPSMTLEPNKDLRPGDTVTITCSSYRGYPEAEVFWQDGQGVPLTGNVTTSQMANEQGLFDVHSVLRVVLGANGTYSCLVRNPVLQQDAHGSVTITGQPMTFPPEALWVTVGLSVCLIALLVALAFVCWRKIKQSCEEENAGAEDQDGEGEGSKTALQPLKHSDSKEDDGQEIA

B7-H3 on Calu-6 cells = molecular target: T2, B7-H3 on Calu-6 cells (UniProt Q5ZPR3 29-534, limits assumed); test: cell-based or functional assay
T2 sequence (looked up): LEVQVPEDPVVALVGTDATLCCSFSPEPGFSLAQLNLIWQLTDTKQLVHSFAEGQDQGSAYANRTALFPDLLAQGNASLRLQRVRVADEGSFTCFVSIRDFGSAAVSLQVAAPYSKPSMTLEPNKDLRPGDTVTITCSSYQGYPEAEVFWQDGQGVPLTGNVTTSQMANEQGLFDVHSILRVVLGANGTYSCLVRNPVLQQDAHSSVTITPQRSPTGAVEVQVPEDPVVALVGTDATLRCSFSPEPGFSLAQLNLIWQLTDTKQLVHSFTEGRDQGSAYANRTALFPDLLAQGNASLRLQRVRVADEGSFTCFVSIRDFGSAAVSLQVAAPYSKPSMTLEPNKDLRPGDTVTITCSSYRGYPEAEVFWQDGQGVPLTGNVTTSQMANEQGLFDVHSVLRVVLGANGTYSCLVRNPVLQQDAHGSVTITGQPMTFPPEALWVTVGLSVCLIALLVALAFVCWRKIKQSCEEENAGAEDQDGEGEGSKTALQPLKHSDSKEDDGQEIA

[2] = molecular target: T3, Lag3 (NCBI Reference Sequence: NP_002277.4) on Lag3-CHO cells (UniProt P18627 23-525, limits assumed); test: flow cytometry on Lag3-CHO cells
T3 construct: whole, on cells
T3 sequence (looked up): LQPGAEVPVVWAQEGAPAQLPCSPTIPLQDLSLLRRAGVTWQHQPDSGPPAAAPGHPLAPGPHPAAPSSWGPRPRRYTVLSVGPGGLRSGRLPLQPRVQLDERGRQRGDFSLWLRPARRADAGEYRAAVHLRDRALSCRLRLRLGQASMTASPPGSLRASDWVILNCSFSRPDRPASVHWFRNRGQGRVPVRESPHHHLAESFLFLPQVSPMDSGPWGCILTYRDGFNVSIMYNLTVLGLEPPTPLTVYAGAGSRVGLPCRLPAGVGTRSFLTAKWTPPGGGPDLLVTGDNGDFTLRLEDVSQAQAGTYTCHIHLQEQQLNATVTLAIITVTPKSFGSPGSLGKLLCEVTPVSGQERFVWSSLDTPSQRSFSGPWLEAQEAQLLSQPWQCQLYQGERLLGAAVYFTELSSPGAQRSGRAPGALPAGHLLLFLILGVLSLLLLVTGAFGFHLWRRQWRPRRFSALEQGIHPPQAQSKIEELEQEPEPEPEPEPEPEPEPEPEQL

[3] = molecular target: T4, Tim3 (NCBI Reference Sequence: NP_116171.3) on Tim3-CHO cells (UniProt Q8TDQ0 22-301, limits assumed); test: flow cytometry on Tim3-CHO cells
T4 construct: whole, on cells

[4] = molecular target: T5, VISTA (NCBI Reference Sequence: NP_071436.1) on VISTA-CHO cells (UniProt Q9H7M9 33-311, limits assumed); test: flow cytometry on VISTA-CHO cells
T5 construct: whole, on cells

[5] = molecular target: T6, B7-H3 on MDA-MB-468 cells (human, UniProt Q5ZPR3); test: flow cytometry on MDA-MB-468 cells; blank V2-R 0.9%
T6 construct: endogenous, on the cell surface
T6 sequence (cell surface antigen, looked up): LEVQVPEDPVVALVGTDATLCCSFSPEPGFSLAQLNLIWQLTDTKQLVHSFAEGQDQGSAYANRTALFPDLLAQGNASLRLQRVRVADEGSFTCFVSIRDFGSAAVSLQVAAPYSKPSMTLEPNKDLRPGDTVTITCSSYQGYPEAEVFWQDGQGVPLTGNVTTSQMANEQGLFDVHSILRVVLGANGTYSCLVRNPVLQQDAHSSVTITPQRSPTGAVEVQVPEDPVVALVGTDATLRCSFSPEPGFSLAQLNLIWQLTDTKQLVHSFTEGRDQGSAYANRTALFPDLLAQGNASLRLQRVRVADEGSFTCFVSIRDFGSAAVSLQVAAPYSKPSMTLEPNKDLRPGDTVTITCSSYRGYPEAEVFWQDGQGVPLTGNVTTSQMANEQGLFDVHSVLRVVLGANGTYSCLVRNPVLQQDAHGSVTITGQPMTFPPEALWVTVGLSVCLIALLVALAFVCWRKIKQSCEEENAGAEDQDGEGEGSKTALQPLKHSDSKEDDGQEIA

antigen hB7-H3-His [6] = molecular target: T7, antigen hB7-H3-His (human, UniProt Q5ZPR3 29-461); test: ELISA, antigen coated at 2 µg/mL, anti-human kappa light chain HRP detection
T7 construct: residues 1-28 are left out on that ground
T7 sequence: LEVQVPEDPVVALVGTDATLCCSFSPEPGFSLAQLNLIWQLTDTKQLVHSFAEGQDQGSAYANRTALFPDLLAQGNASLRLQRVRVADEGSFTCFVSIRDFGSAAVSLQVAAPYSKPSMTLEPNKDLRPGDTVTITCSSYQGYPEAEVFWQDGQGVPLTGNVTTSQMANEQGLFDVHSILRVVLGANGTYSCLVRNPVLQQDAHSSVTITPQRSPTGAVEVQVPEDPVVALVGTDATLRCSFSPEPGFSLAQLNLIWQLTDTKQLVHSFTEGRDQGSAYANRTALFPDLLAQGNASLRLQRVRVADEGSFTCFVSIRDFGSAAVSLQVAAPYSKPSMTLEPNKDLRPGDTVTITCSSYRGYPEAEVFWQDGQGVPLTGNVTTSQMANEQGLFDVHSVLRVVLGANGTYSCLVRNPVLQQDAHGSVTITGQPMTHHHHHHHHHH

[7] = molecular target: T8, cynomolgus monkey B7-H3 (novoprotein CA61) (cynomolgus monkey); test: as above
T8 construct: Bought protein

[8] = molecular target: T9, mouse B7-H3 (SinoBiological, 50973-M08H) (mouse, UniProt Q8VE98 29-244); test: ELISA, antigen coated at 2 µg/mL, Antibody V3 in 2-fold dilutions (EC50 cell in Table 12: NA)
T9 construct: Bought protein
T9 sequence (looked up): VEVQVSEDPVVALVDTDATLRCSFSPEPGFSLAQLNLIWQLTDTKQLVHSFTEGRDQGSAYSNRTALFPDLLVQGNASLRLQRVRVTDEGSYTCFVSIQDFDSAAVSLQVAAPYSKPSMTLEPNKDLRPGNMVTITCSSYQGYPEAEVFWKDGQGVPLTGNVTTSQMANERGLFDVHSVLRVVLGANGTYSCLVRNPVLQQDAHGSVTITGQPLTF

antigen hB7-H3-His [9] = molecular target: T7, antigen hB7-H3-His; test: SPR, BiaCore T200, ADC or antibody captured on Protein A chip, hB7-H3-His as analyte, 1:1 model
[10] = molecular target: T3, Lag3 (NCBI Reference Sequence: …); test: flow cytometry on Lag3-CHO cells; blank P3 0.5%; the filing says V1-V5 did not bind
[11] = molecular target: T4, Tim3 (NCBI Reference Sequence: …); test: flow cytometry on Tim3-CHO cells; blank P3 0.2%; the filing says V1-V5 did not bind
[12] = molecular target: T5, VISTA (NCBI Reference Sequence: …); test: flow cytometry on VISTA-CHO cells; blank P3 0.1%; the filing says V1-V5 did not bind
antigen hB7-H3-His [13] = molecular target: T7, antigen hB7-H3-His; test: SPR, BiaCore T200, ADC or antibody captured on Protein A chip, hB7-H3-His as analyte, 1:1 model; naked Antibody V3, not conjugated
hB7-H3-Fc = molecular target: T10, hB7-H3-Fc; test: ELISA on coated hB7-H3-Fc (2 ug/mL), HRP anti-human kappa secondary, A450, antibody from 300 nM in 3-fold dilutions; axis 'Concentration' has no unit, nM from p-1066
T10 construct: also called antigen hB7-H3-Fc
T10 sequence (fusion chain, as listed by the source limits assumed): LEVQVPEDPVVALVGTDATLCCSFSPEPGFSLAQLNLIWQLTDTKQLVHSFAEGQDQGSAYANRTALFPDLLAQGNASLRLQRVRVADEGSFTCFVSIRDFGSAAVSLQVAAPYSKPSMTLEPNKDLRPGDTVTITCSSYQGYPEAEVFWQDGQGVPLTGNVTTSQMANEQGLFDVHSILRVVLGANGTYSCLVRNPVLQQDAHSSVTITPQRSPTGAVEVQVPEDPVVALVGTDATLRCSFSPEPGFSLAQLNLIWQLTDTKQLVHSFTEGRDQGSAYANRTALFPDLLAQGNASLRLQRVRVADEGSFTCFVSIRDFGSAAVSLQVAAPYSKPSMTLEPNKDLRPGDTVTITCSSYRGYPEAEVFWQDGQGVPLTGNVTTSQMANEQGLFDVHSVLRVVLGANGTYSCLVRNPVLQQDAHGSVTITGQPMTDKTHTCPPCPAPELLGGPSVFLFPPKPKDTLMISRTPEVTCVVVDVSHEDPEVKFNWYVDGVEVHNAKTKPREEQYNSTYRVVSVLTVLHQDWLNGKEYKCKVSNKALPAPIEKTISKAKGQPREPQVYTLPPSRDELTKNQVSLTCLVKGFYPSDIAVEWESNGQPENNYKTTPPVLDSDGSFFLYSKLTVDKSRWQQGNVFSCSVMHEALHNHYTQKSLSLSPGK

B1: ADC2 (control drug) (antibody, human IgG1, kappa, V domains shown)
VH: EVQLVQSGAEVKKSGESLKISCKASGYTFTDYDINWVRQMPGKGLEWIGWIFPGDDTTKYNEKFKGQVTLSADKSTNTAYMQWSSLKASDTAMYYCARSPSFDYWGQGTLVTVSS
VL: QIVLTQSPGTLSLSPGERATLSCSASSTIGFMYWYQQKPGQAPRRWIYDTSKLASGVPDRFSGSGSGTDYTLTISRLEPEDFAVYYCHQRSSYPTFGQGTKVEIKR
modifications: MC-GGFG-DXD (Deruxtecan) conjugated after TCEP reduction; DAR (p) 3.7 for the whole antibody; sites not stated
For B1, the “IC50 (nM), in-vitro cytotoxicity, CCK8” value [1] was 0.77 nM and the “IC50 (nM), in-vitro cytotoxicity, CCK8” value (B7-H3 on Calu-6 cells) was 68.8 nM.

B2: Antibody V3 (antibody, human IgG1, kappa, V domains shown)
VH: EVQLVQSGAEVKKSGESLKISCKASGYTFTDYDINWVRQMPGKGLEWIGWIFPGDDTTKYNEKFKGQVTLSADKSTNTAYMQWSSLKASDTAMYYCARSPSFDYWGQGTLVTVSS
VL: QIVLTQSPGTLSLSPGERATLSCSASSTIGFMYWYQQKPGQAPRRWIYDTSKLASGVPDRFSGSGSGTDYTLTISRLEPEDFAVYYCHQRSSYPTFGQGTKVEIKR
notes: Humanized from chimeric antibody M1; also called humanized antibody V3
B2: no binding (tested: 100 nM) [2]; no binding (tested: 100 nM) [3]; no binding (tested: 100 nM) [4]. For the same binder, the “% of cells in gate V1-R at 0.411 nM” value [5] was 36.8%, the “% of cells in gate V1-R at 1.23 nM” value [5] was 86.4% and the “% of cells in gate V1-R at 3.7 nM” value [5] was 94%. For the same binder, the “% of cells in gate V1-R at 11.11 nM” value [5] was 97.2%, the “% of cells in gate V1-R at 33.33 nM” value [5] was 98.9% and the “% of cells in gate V1-R at 100 nM” value [5] was 99.6%. The EC50 (antigen hB7-H3-His [6]) was 0.042 µg/mL, the EC50 [7] was 0.042 µg/mL and the binding result [8] was “no binding (tested: initial concentration of 2 µg/mL)”. For the same binder, the koff (antigen hB7-H3-His [9]) was 0.000155 s⁻¹, the kon (antigen hB7-H3-His [9]) was 886000 M⁻¹ s⁻¹ and the “% of cells in gate P3 at 100 nM” value [10] was 0.6%. The “% of cells in gate P3 at 100 nM” value [11] was 0.4%, the “% of cells in gate P3 at 100 nM” value [12] was 0.7% and the Kd (antigen hB7-H3-His [13]) was 0.175 nM. The EC50 (hB7-H3-Fc) was 1.77 nM.
